The source of these data is patent publication US20160311917A1 (Novartis, published 2016).

T1: recombinant human biotinylated mesothelin extracellular domain with C-terminal Avi-Tag (human, site selectively biotinylated in vitro with BirA enzyme at the C-terminal Avi-Tag)
T1 construct: Produced in HEK293F cells; as printed it includes a His tag and the Avi-Tag; Immobilised on a streptavidin sensor chip for SPR; also called human MSLN ECD; human mesothelin ECD
T1 chain: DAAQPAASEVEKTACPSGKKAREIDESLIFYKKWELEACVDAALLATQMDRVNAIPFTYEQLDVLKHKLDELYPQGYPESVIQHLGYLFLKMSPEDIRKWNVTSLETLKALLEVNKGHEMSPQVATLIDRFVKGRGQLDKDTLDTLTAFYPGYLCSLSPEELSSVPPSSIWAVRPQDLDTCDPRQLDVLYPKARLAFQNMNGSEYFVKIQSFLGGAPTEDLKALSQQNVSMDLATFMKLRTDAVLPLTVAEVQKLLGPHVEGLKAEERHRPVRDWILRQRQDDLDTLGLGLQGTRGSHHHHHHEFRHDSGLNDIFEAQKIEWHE

T2: Glycosylation Deficient Mesothelin (296-588; N388Q, N496Q, N523Q) (human)
T2 construct: It already carries N388Q, N496Q and N523Q; also called hMSLN296-588; human mesothelin(296-588)
T2 chain: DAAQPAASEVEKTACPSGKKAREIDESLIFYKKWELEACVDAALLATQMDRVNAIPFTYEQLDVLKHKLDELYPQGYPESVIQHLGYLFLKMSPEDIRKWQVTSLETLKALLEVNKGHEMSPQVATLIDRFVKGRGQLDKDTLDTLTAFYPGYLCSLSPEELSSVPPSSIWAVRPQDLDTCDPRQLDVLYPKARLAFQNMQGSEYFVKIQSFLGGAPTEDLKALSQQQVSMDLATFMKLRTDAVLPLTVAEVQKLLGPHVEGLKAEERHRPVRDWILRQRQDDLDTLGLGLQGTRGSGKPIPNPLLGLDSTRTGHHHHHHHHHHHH

B1: M12 scFv (human anti-mesothelin scFv, soluble, His-tagged) (scFv)
scFv: QVQLVQSGAEVKKPGASVKVSCKASGYTFTGYYMHWVRQAPGQGLEWMGRINPNSGGTNYAQKFQGRVTMTTDTSTSTAYMELRSLRSDDTAVYYCARTTTSYAFDIWGQGTMVTVSSGGGGSGGGGSGGGGSGGGGSDIQLTQSPSTLSASVGDRVTITCRASQSISTWLAWYQQKPGKAPNLLIYKASTLESGVPSRFSGSGSGTEFTLTISSLQPDDFATYYCQQYNTYSPYTFGQGTKLEIKGSHHHHHHHH
notes: also called DE12-14RD
B2: M11 scFv (human anti-mesothelin scFv, soluble, His-tagged) (scFv)
scFv: QVQLQQSGAEVKKPGASVKVSCKASGYTFTGYYMHWVRQAPGQGLEWMGWINPNSGGTNYAQNFQGRVTMTRDTSISTAYMELRRLRSDDTAVYYCASGWDFDYWGQGTLVTVSSGGGGSGGGGSGGGGSGGGGSDIRMTQSPSSLSASVGDRVTITCRASQSIRYYLSWYQQKPGKAPKLLIYTASILQNGVPSRFSGSGSGTDFTLTISSLQPEDFATYYCLQTYTTPDFGPGTKVEIKGSHHHHHHHH
notes: also called NE10-19WD
B3: M21 scFv (human anti-mesothelin scFv, soluble, His-tagged) (scFv)
scFv: QVQLVQSWAEVKKPGASVKVSCKASGYTFTSYYMHWVRQAPGQGLEWMGIINPSGGSTSYAQKFQGRVTMTRDTSTSTVYMELSNLRSEDTAVYYCARSPRVTTGYFDYWGQGTLVTVSSGGGGSGGGGSGGGGSGGGGSDIQLTQSPSTLSASVGDRVTITCRASQSISSWLAWYQQKPGKAPKLLIYKASSLESGVPSRFSGSGSGTEFTLTISSLQPDDFATYYCQQYSSYPLTFGGGTRLEIKGSHHHHHHHH
notes: also called MM21; ZS95-03QD
B4: M23 scFv (human anti-mesothelin scFv, soluble, His-tagged) (scFv)
scFv: QVQLQQSGAEVKKPGASVKVSCKASGYTFTNYYMHWVRQAPGQGLEWMGIINPSGGYTTYAQKFQGRLTMTRDTSTSTVYMELSSLRSEDTAVYYCARIRSCGGDCYYFDNWGQGTLVTVSSGGGGSGGGGSGGGGSGGGGSDIQLTQSPSTLSASVGDRVTITCRASENVNIWLAWYQQKPGKAPKLLIYKSSSLASGVPSRFSGSGSGAEFTLTISSLQPDDFATYYCQQYQSYPLTFGGGTKVDIKGSHHHHHHHH
notes: also called XH66-84HE
B5: M5 scFv (human anti-mesothelin scFv, soluble, His-tagged) (scFv)
scFv: QVQLVQSGAEVEKPGASVKVSCKASGYTFTDYYMHWVRQAPGQGLEWMGWINPNSGGTNYAQKFQGRVTMTRDTSISTAYMELSRLRSDDTAVYYCASGWDFDYWGQGTLVTVSSGGGGSGGGGSGGGGSGGGGSDIVMTQSPSSLSASVGDRVTITCRASQSIRYYLSWYQQKPGKAPKLLIYTASILQNGVPSRFSGSGSGTDFTLTISSLQPEDFATYYCLQTYTTPDFGPGTKVEIKGSHHHHHHHH
notes: also called scFv M5; XP31-20LC
B6: M14 scFv (human anti-mesothelin scFv, soluble, His-tagged) (scFv)
scFv: QVQLVQSGAEVRAPGASVKISCKASGFTFRGYYIHWVRQAPGQGLEWMGIINPSGGSRAYAQKFQGRVTMTRDTSTSTVYMELSSLRSDDTAMYYCARTASCGGDCYYLDYWGQGTLVTVSSGGGGSGGGGSGGGGSGGGGSDIQMTQSPPTLSASVGDRVTITCRASENVNIWLAWYQQKPGKAPKLLIYKSSSLASGVPSRFSGSGSGAEFTLTISSLQPDDFATYYCQQYQSYPLTFGGGTKVDIKGSHHHHHHHH
notes: also called BS83-95ID
B7: M16 scFv (human anti-mesothelin scFv, soluble, His-tagged) (scFv)
scFv: EVQLVESGGGLVQPGRSLRLSCAASGFTFDDYAMHWVRQAPGKGLEWVSGISWNSGSTGYADSVKGRFTISRDNAKNSLYLQMNSLRAEDTALYYCAKDSSSWYGGGSAFDIWGQGTMVTVSSGGGGSGGGGSGGGGSSSELTQEPAVSVALGQTVRITCQGDSLRSYYASWYQQKPGQAPVLVIFGRSRRPSGIPDRFSGSSSGNTASLIITGAQAEDEADYYCNSRDNTANHYVFGTGTKLTVLGSHHHHHHHH
notes: also called XS87-99RD
B8: M17 scFv (human anti-mesothelin scFv, soluble, His-tagged) (scFv)
scFv: EVQLVESGGGLVQPGRSLRLSCAASGFTFDDYAMHWVRQAPGKGLEWVSGISWNSGSTGYADSVKGRFTISRDNAKNSLYLQMNSLRAEDTALYYCAKDSSSWYGGGSAFDIWGQGTMVTVSSGGGGSGGGGSGGGGSSSELTQDPAVSVALGQTVRITCQGDSLRSYYASWYQQKPGQAPVLVIYGKNNRPSGIPDRFSGSSSGNTASLTITGAQAEDEADYYCNSRGSSGNHYVFGTGTKVTVLGSHHHHHHHH
notes: also called NS89-94MD

The first experiment concerns the target T1, recombinant human biotinylated …. Put plainly: SPR, Biacore T200; biotinylated mesothelin ECD on streptavidin chip, scFv injected; steady state affinity model.
Experimental: (§1) Binding affinity of purified scFvs was measured on a Biacore T200 system. Briefly, recombinant human biotinylated mesothelin ECD was immobilized on a streptavidin (SA) sensor chip surface at a density of 150 RU. Purified scFv was injected over the chip under constant flow rate at three-fold serial dilutions. Association and dissociation rates of the protein complex were monitored for 270 seconds and 400 seconds, respectively. Double referencing was performed against a blank immobilized flow cell and a buffer blank. Affinity was determined with a Langmuir 1:1 binding model when possible, for those scFVs where accurate fitting was not possible due to fast on and off rates, the steady state model was used.
As for B1, the Kd stood at 307 nM.
For the molecule B2, the Kd came to 64.7 nM.
B3: the Kd was 110 nM.
For the molecule B4, the Kd came out at 114 nM.

The next experiment has as its target T2, Glycosylation Deficient Mesothelin …. The experiment in a line: Hydrogen-deuterium exchange mass spectrometry: difference in deuterium uptake of the co-expressed complex against unbound mesothelin, peptides 456-586.
Experimental: For hMSLN₂₉₆₋₅₈₈ deuterium labeling experiments in the absence of antibody, 400 pmol of hMSLN₂₉₆₋₅₈₈, volume of 6.9 was diluted using 100 μl of the deuterium buffer for 15 minutes at 4° C. The labeling reaction was then quenched with 100 μl of chilled quench buffer at 2° C. for three minutes followed by injected onto the LC-MS system for automated pepsin digestion and peptide analysis.
The labeling reaction was then quenched with 100 μl of chilled quench buffer at 2° C. for three minutes followed by injected onto the LC-MS system for automated pepsin digestion and peptide analysis. […] The labeling reaction was then quenched with 100 μl of chilled quench buffer at 2° C. for three minutes, and then injected onto the LC-MS system for automated pepsin digestion and peptide analysis.
All deuterium exchange experiments were quenched using 0.5 M TCEP and 3 M urea (pH=2.6). After quenching, the exchanged antigen was subjected to on-line pepsin digestion using a Poroszyme Immobilized Pepsin column (2.1×30 mm) at 12° C. followed by trapping on a Waters Vanguard HSS T3 trapping column.
Take B5: the binding result was “binds”.

The target in a further experiment is T1, recombinant human biotinylated …. Put plainly: SPR, Biacore T200; biotinylated mesothelin ECD on streptavidin chip, scFv injected; 1:1 binding model. In general terms: In SPR one partner is held on a chip, and binding of the other changes the refractive index at the surface.
Experimental: as §1
For B5, the Kd is 26.9 nM, the koff came out at 0.00113 s⁻¹ and the on-rate (kon) was 42000 M⁻¹ s⁻¹.
Consider B6, for which the Kd is 0.9 nM, the koff turned out to be 0.00251 s⁻¹ and the kon turned out to be 2.75e+06 M⁻¹ s⁻¹.
For B7, in that order: 22.7 nM, 0.00395 s⁻¹ and 174000 M⁻¹ s⁻¹.
For the molecule B8, the Kd was determined as 27.8 nM, the koff was 0.0145 s⁻¹ and the kon stood at 522000 M⁻¹ s⁻¹.

As usually defined, the Kd is the equilibrium constant for the complex coming apart. In general, koff refers to the first-order rate constant of dissociation. For orientation: kon means a measure of how fast the partners come together.
